Here are results for two proteins from publication PMC4954775.

Substrate in the data set: Cc1cc(=O)oc2cc(O[C@@H]3O[C@@H](C(=O)O)[C@@H](O)[C@H](O)[C@H]3O)ccc12
In words: purified protein.

B1: α-L-iduronidase (IDUA) (Homo sapiens) (protein)
chain: APHLVHVDAARALWPLRRFWRSTGFCPPLPHSQADQYVLSWDQQLNLAYVGAVPHRGIKQVRTHWLLELVTTRGSTGRGLSYNFTHLDGYLDLLRENQLLPGFELMGSASGHFTDFEDKQQVFEWKDLVSSLARRYIGRYGLAHVSKWNFETWNEPDHHDFDNVSMTMQGFLNYYDACSEGLRAASPALRLGGPGDSFHTPPRSPLSWGLLRHCHDGTNFFTGEAGVRLDYISLHRKGARSSISILEQEKVVAQQIRQLFPKFADTPIYNDEADPLVGWSLPQPWRADVTYAAMVVKVIAQHQNLLLANTTSAFPYALLSNDNAFLSYHPHPFAQRTLTARFQVNNTRPPHVQLLRKPVLTAMGLLALLDEEQLWAEVSQAGTVLDSNHTVGVLASAHRPQGPADAWRAAVLIYASDDTRAHPNRSVAVTLRLRGVPPGPGLVYVTRYLDNGLCSPDGEWRRLGRPVFPTAEQFRRMRAAEDPVAAAPRPLPAGGRLTLRPALRLPSLLLVHVCARPEKPPGQVTRLRALPLTQGQLVLVWSDEHVGSKCLWTYEIQFSQDGKAYTPVSRKPSTFNLFVFSPDTGAVSGSYRVRALDYWARPGPFSDPVPYLEVPVPRGPPSPGNP
Consider B1, for which the Km was determined as 27.0 ± 2.3 µM.

B2: α-L-iduronidase (IDUA) (Homo sapiens; P533R) (protein)
chain: APHLVHVDAARALWPLRRFWRSTGFCPPLPHSQADQYVLSWDQQLNLAYVGAVPHRGIKQVRTHWLLELVTTRGSTGRGLSYNFTHLDGYLDLLRENQLLPGFELMGSASGHFTDFEDKQQVFEWKDLVSSLARRYIGRYGLAHVSKWNFETWNEPDHHDFDNVSMTMQGFLNYYDACSEGLRAASPALRLGGPGDSFHTPPRSPLSWGLLRHCHDGTNFFTGEAGVRLDYISLHRKGARSSISILEQEKVVAQQIRQLFPKFADTPIYNDEADPLVGWSLPQPWRADVTYAAMVVKVIAQHQNLLLANTTSAFPYALLSNDNAFLSYHPHPFAQRTLTARFQVNNTRPPHVQLLRKPVLTAMGLLALLDEEQLWAEVSQAGTVLDSNHTVGVLASAHRPQGPADAWRAAVLIYASDDTRAHPNRSVAVTLRLRGVPPGPGLVYVTRYLDNGLCSPDGEWRRLGRPVFPTAEQFRRMRAAEDPVAAAPRPLPAGGRLTLRPALRLRSLLLVHVCARPEKPPGQVTRLRALPLTQGQLVLVWSDEHVGSKCLWTYEIQFSQDGKAYTPVSRKPSTFNLFVFSPDTGAVSGSYRVRALDYWARPGPFSDPVPYLEVPVPRGPPSPGNP
B2: the Michaelis-Menten constant (Km) was determined as 35.3 ± 3.66 µM.
